The text below walks through data of patent US20120094356A1.

In the assay the target is trypsin. Briefly: trypsin inhibition assay, 10 nM each, chromogenic substrate; Ka calculated.

On to “human growth hormone/alpha-1 antitrypsin fusion [T109wt: α1AT/hGH]”, for which the Ka was 7.5e+08 M⁻¹.
